Residue numbers refer to the chain shown, from its start. In names and notes the source's numbering stands.
B1: F337C (protein)
chain: MQLRNPELHLGCALALRFLALVSWDIPGARALDNGLARTPTMGWLHWERFMCNLDCQEEPDSCISEKLFMEMAELMVSEGWKDAGYEYLCIDDCWMAPQRDSEGRLQADPQRFPHGIRQLANYVHSKGLKLGIYADVGNKTCAGFPGSFGYYDIDAQTFADWGVDLLKFDGCYCDSLENLADGYKHMSLALNRTGRSIVYSCEWPLYMWPFQKPNYTEIRQYCNHWRNFADIDDSWKSIKSILDWTSFNQERIVDVAGPGGWNDPDMLVIGNFGLSWNQQVTQMALWAIMAAPLFMSNDLRHISPQAKALLQDKDVIAINQDPLGKQGYQLRQGDNCEVWERPLSGLAWAVAMINRQEIGGPRSYTIAVASLGKGVACNPACFITQLLPVKRKLGFYEWTSRLRSHINPTGTVLLQLENTMQMSLKDLL
B2: L344R (protein)
chain: B1 chain with C337F, L344R
B3: P343A (protein)
chain: B1 chain with C337F, P343A
B4: F337L (protein)
chain: B1 chain with C337L
B5: G346C (protein)
chain: B1 chain with C337F, G346C
B6: V339M (protein)
chain: B1 chain with C337F, V339M
B7: G346D (protein)
chain: B1 chain with C337F, G346D
B8: G346A (protein)
chain: B1 chain with C337F, G346A
B9: E338G (protein)
chain: B1 chain with C337F, E338G
B10: L344F (protein)
chain: B1 chain with C337F, L344F
B11: F337Y (protein)
chain: B1 chain with C337Y
B12: E338D (protein)
chain: B1 chain with C337F, E338D
B13: L344V (protein)
chain: B1 chain with C337F, L344V
B14: E338A (protein)
chain: B1 chain with C337F, E338A
B15: P343S (protein)
chain: B1 chain with C337F, P343S
B16: E341A (protein)
chain: B1 chain with C337F, E341A
B17: E341Q (protein)
chain: B1 chain with C337F, E341Q
B18: F337V (protein)
chain: B1 chain with C337V

Test system: mutant form of α-Gal A expressed in HEK-293 cells
Assay: HEK assay (GLP HEK / Migalastat Amenability Assay): α-Gal A activity in lysates of transiently transfected HEK-293 cells incubated with or without 10 μM migalastat
Assay type: cell-based, human
Details: for Absolute increase (% WT) / Relative increase: 10 μM migalastat versus baseline; for Baseline α-Gal A activity (% WT): absence of migalastat; for Baseline α-Gal A activity (% WT) / 10 μM migalastat α-Gal A activity (% WT): percentage of baseline wild-type α-Gal A activity; for Baseline α-Gal A activity (% WT) / Baseline α-Gal A activity / 10 μM migalastat α-Gal A activity / 10 μM migalastat α-Gal A activity (% WT): mean ± SEM; for Baseline α-Gal A activity / 10 μM migalastat α-Gal A activity: lysates of HEK-293 cells transiently transfected with the mutant form; for Baseline α-Gal A activity: incubated 5 days in absence of migalastat; for 10 μM migalastat α-Gal A activity: incubated 5 days with 10 μM migalastat; for 10 μM migalastat α-Gal A activity (% WT): with 10 μM migalastat, 5 days
Summary of the method: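 HEK-293 cells transiently transfected with mutant α-Gal A and incubated with or without 10 μM migalastat; lysate activity given as nmol free 4-MU released per mg protein per hour. Values are mean±SEM.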

| Molecule | Absolute increase (% WT) | Relative increase | Baseline α-Gal A activity (% WT) | Baseline α-Gal A activity [nmol/mg/h] | 10 μM migalastat α-Gal A activity [nmol/mg/h] | 10 μM migalastat α-Gal A activity (% WT) |
| --- | --- | --- | --- | --- | --- | --- |
| B1 | 19.0 | 1.9 | 21.7 ± 0.8 | 9557 ± 452 | 17991 ± 960 | 40.7 ± 1.6 |
| B2 | 15.3 | 2.3 | 10.9 ± 1.4 | 4983 ± 848 | 11592 ± 1593 | 26.2 ± 2.6 |
| B3 | 21.2 | 1.3 | 69.5 ± 4.9 | 25254 ± 2385 | 32890 ± 2292 | 90.7 ± 3.7 |
| B4 | 20.8 | 1.4 | 57.8 ± 4.8 | 23197 ± 2254 | 31963 ± 2641 | 78.6 ± 3.1 |
| B5 | 9.7 | 1.3 | 39.5 ± 1.9 | 18258 ± 1054 | 22856 ± 1772 | 49.2 ± 2.9 |
| B6 | 18.2 | 1.3 | 63.5 ± 2.9 | 26113 ± 1116 | 33867 ± 2526 | 81.7 ± 5 |
| B7 | 35.8 | 1.5 | 67.5 ± 6.4 | 31327 ± 3822 | 46560 ± 3904 | 103.3 ± 6 |
| B8 | 22.0 | 1.4 | 58.3 ± 3.3 | 23263 ± 1479 | 31948 ± 1306 | 80.4 ± 2.8 |
| B9 | 16.8 | 2.0 | 17.1 ± 1.1 | 6415 ± 391 | 12588 ± 538 | 33.9 ± 1.8 |
| B10 | 9.0 | 16.7 | 0.6 ± 0.1 | 217 ± 25 | 3629 ± 614 | 9.6 ± 1.4 |
| B11 | 21.6 | 1.4 | 52.3 ± 4.2 | 21577 ± 1930 | 30991 ± 2695 | 73.9 ± 3.2 |
| B12 | 15.2 | 1.2 | 65.7 ± 4.9 | 25700 ± 1958 | 31632 ± 1825 | 80.9 ± 4.6 |
| B13 | 16.8 | 1.4 | 40.6 ± 3.2 | 13586 ± 1026 | 19262 ± 903 | 57.5 ± 2.5 |
| B14 | 24.8 | 1.7 | 39.5 ± 2.3 | 15626 ± 769 | 25719 ± 1376 | 64.3 ± 3 |
| B15 | 19.0 | 1.3 | 62.1 ± 2.7 | 22132 ± 1243 | 29289 ± 2351 | 81.1 ± 4.6 |
| B16 | 11.6 | 4.1 | 3.8 ± 0.4 | 1444 ± 159 | 5855 ± 690 | 15.4 ± 1.3 |
| B17 | 19.7 | 1.4 | 55.5 ± 3.7 | 20802 ± 2164 | 28411 ± 2891 | 75.2 ± 4.1 |
| B18 | 31.1 | 1.4 | 65.9 ± 4.1 | 29582 ± 2747 | 42718 ± 2776 | 97 ± 4.6 |

— patent US11833164B2, “Methods of treating Fabry disease in patients having a mutation in the GLA gene” (Amicus Therapeutics, Inc., priority 2019, dated 2023)
